Measurements reported in patent publication US20230012273A1 (Boehringer Ingelheim, published 2023).

T1: full-length human SIRPγ EN→DD on Expi-CHO cells (human, UniProt Q9P1W8 29-387)
T1 construct: the entry already carries the change (PENV to PDDV)
T1 chain: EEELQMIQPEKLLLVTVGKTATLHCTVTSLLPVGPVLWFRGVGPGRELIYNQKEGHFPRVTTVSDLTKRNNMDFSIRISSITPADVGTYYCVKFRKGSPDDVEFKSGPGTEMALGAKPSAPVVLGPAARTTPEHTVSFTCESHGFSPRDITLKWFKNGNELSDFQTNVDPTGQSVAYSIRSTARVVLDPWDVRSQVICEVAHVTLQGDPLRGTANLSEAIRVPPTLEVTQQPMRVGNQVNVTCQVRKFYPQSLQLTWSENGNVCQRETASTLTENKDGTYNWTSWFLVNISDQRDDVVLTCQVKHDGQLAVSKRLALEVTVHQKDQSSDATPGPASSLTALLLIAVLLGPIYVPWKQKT


Assays:
[1] = target: T2, full-length human SIRPβL (NP_001129316.1) on cells (human, UniProt Q5TFQ8 30-398); assay: flow cytometry, U937 SIRPα-KO transfectants
T2 construct: one molecule for U937 SIRPα-KO transfectants (NP_001129316.1) and Expi-CHO transfectants (Q5TFQ8); also called SIRPβ1v3; βL WT
T2 sequence (Q5TFQ8 30-398): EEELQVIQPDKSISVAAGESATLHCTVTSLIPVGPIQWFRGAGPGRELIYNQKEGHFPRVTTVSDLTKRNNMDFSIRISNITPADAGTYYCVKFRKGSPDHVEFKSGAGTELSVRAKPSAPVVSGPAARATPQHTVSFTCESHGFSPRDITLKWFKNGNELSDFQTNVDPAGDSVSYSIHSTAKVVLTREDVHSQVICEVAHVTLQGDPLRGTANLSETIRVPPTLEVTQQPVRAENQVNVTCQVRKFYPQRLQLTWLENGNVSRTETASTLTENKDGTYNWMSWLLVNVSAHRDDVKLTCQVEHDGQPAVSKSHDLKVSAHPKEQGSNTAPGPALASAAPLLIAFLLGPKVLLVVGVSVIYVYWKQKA
Method: (§1) Antibody binding to cells expressing full-length human SIRPβ1 (NP_006056.2) and SIRPβL (NP_001129316.1) is evaluated by flow cytometry. SIRPβ1- or SIRPβL-expressing U937^{SIRPα KO} cells are blocked with donkey IgG and incubated on ice with increasing concentrations of antibodies for 60 minutes, washed and stained with AF647-conjugated donkey F(ab′)₂ anti-human IgG secondary reagent. Cells are washed, fixed, and analyzed by flow cytometry. Median fluorescent intensity is determined and used as a measure of antibody binding.

[2] = target: T3, full-length human SIRPαV1 (NP_542970.1) on cells (human, UniProt P78324 31-504); assay: flow cytometry, U-937 cells (endogenous V1)
T3 construct: one molecule for CHO-K1 and Expi-CHO transfectants (NP_542970.1) and for endogenous V1 on U-937 cells and on CD14+ monocytes of V1/V1 donors; also called CHO-hSIRPαV1; αV1 WT
T3 sequence (P78324 31-504): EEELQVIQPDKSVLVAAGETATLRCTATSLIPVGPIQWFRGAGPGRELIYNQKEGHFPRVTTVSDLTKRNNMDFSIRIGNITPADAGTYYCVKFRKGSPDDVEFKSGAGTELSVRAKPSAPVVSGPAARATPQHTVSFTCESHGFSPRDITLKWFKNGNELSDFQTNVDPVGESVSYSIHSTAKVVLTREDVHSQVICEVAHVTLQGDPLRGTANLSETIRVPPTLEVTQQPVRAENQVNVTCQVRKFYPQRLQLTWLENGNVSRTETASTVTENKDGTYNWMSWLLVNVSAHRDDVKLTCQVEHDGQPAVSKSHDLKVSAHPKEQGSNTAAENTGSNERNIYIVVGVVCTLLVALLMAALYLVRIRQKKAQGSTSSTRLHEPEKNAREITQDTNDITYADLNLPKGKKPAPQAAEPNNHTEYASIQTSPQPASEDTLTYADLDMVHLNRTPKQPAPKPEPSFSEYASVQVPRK
Method: Antibody binding to human monocytic cell lines homozygous for the V1-allele (U-937) or the V2-allele (THP-1) of SIRPα is assessed. U-937 or THP-1 cells are blocked with donkey IgG and incubated on ice with increasing concentrations of antibodies for 60 minutes, washed and stained with AF647-conjugated donkey F(ab′)₂ anti-human IgG secondary reagent. Cells are washed, fixed, and analyzed by flow cytometry. Median fluorescent intensity is determined and used as a measure of antibody binding.

[3] = target: T4, full-length human SIRPγ E→D on Expi-CHO cells (human, UniProt Q9P1W8 29-387); assay: flow cytometry, Expi-CHO cells expressing full-length human SIRPγ E→D
T4 construct: the entry already carries the change (PENV to PDNV)
T4 sequence (Q9P1W8 29-387 E128D): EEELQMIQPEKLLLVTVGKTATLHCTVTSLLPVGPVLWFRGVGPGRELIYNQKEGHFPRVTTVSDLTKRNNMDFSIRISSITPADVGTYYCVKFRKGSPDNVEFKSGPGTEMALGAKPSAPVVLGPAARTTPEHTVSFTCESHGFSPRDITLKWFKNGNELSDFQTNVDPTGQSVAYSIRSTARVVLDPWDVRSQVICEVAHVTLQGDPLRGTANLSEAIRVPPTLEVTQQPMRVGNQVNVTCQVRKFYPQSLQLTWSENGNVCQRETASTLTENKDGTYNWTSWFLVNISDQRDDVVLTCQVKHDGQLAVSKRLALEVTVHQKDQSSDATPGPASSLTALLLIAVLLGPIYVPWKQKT
Method: (§2) Expi-CHO parental cells are transduced with lentiviruses containing either full-length wild-type human SIRPγ ([…]) or full-length human SIRPγ with amino acid point mutations (Table 64) and sorted to achieve matching expression levels. These cells are blocked with donkey IgG and incubated on ice with increasing concentrations of antibodies for 60 minutes, washed and stained with AF647-conjugated donkey F(ab′)₂ anti-human IgG antibodies. Stained cells are washed, fixed, and analyzed by flow cytometry. Median fluorescent intensity is determined and used as a measure of antibody binding.

[4] = target: T5, recombinant human SIRPγ extracellular domain (ECD)/His protein (NP_061026.2) (human, UniProt Q9P1W8 29-360); assay: ELISA, immobilised His-tagged human SIRPγ extracellular domain (average fluorescence)
T5 construct: coated on ELISA plates; also called recombinant hSIRPγ; not shown: His-tag
T5 sequence (Q9P1W8 29-360): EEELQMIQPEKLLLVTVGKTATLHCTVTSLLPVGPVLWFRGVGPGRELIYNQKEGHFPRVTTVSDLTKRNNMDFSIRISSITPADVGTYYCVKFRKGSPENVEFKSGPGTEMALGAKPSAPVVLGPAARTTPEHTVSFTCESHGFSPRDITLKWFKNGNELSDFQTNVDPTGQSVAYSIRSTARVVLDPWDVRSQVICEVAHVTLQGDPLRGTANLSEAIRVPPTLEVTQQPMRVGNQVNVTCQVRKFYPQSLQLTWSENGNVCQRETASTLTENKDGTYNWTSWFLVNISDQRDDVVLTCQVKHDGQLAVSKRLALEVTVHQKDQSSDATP
Method: A biochemical ELISA-based assay is utilized to evaluate the binding of antibodies to SIRPγ. Black, 96-well flat-bottom immunoassay plates are coated with recombinant human SIRPγ extracellular domain (ECD)/His protein (NP_061026.2) diluted in DPBS and incubated overnight at 4° C. […] Plates are washed and serially titrated antibodies are added to respective wells for an incubation of about 1-2 h at RT. After the incubation, the plates are washed and HRPO-conjugated mouse anti-human IgG secondary reagent (Jackson Immuno Research) is added to each well and incubated for about 1-2 hours. Following the final plate washing, Amplex™ red substrate is added and incubated at RT in the dark for 15-30 minutes. Fluorescence is detected (λEx/λEm=530/590 nm) using EnVision Multilabel Plate Reader (Perkin Elmer). Average fluorescence is plotted for measuring the antibody binding.

[5] = target: T6, full-length human SIRPγ N→D on Expi-CHO cells (human, UniProt Q9P1W8 29-387); assay: flow cytometry, Expi-CHO cells expressing full-length human SIRPγ N→D
T6 construct: the entry already carries the change (PENV to PEDV)
T6 sequence (Q9P1W8 29-387 N129D): as the sequence (Q9P1W8 29-387 E128D) above, with D100E, N101D counted along it
Method: as §2

[6] = target: T7, full-length cynomolgus SIRPβ1v3 (XP_005568593) on CHO cells, clone 1HC6 (cynomolgus monkey); assay: flow cytometry, CHO cells
T7 construct: also called SIRPβ1v3 XP-005568593 Clone 1HC6
Method: as §1, with “full-length cynomolgus” for “full-length human”, “SIRPβ1 (XP_005568598)” for “SIRPβ1 (NP_006056.2)”, “and SIRPβ1v3 (XP_005568593)” for “and SIRPβL (NP_001129316.1)”, “or SIRPβ1V3-expressing CHO” for “or SIRPβL-expressing U937^{SIRPα KO}”

[7] = target: T8, full-length human SIRPβ1 (NP_006056.2) on cells (human, UniProt O00241 30-398); assay: flow cytometry, Expi-CHO cells
T8 construct: also called β1 WT
T8 sequence (O00241 30-398): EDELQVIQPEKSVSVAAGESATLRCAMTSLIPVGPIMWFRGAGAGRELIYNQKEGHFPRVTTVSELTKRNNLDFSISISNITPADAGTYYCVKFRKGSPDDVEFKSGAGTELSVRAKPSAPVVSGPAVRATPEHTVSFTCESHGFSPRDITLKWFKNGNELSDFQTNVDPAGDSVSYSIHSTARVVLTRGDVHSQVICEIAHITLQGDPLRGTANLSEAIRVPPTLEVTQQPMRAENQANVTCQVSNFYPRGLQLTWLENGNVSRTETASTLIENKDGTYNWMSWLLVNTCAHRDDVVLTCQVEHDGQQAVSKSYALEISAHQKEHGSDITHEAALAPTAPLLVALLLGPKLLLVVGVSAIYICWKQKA
Method: These cells are blocked with donkey IgG and incubated on ice with increasing concentrations of antibodies for 60 minutes, washed and stained with AF647-conjugated donkey F(ab′)₂ anti-human IgG antibodies. Stained cells are washed, fixed, and analyzed by flow cytometry. Median fluorescent intensity is determined and used as a measure of antibody binding.

[8] = target: T8, full-length human SIRPβ1 (NP_006056.2) …; assay: flow cytometry, U937 SIRPα-KO transfectants
Method: as §1

[9] = target: T6, full-length human SIRPγ N→D on Expi-CHO …; assay: flow cytometry, Expi-CHO cells
Method: as §2

[10] = target: T1, full-length human SIRPγ EN→DD on …; assay: flow cytometry, Expi-CHO cells
Method: as §2

[11] = target: T9, full-length cynomolgus SIRPβ1 (XP_005568598) on CHO cells, clone PA2 (cynomolgus monkey); assay: flow cytometry, CHO cells
T9 construct: whole, on cells; also called SIRPβ1 XP_005568598 Clone PA2
Method: as §1, with “full-length cynomolgus” for “full-length human”, “SIRPβ1 (XP_005568598)” for “SIRPβ1 (NP_006056.2)”, “and SIRPβ1v3 (XP_005568593)” for “and SIRPβL (NP_001129316.1)”, “or SIRPβ1V3-expressing CHO” for “or SIRPβL-expressing U937^{SIRPα KO}”

EC50 [1] [nM]	EC50 [2] [nM]	binding result [3]	binding result [4]	binding result [5]	EC50 [6] [nM]	EC50 [7] [nM]	EC50 [8] [nM]	EC50 [9] [nM]	EC50 [10] [nM]	EC50 [11] [nM]	Binder
0.3	0.5	no binding (tested: about 67 nM)	no binding (tested: about 67 nM)	no binding (tested: about 67 nM)	0.8	–	–	–	–	–	Antibody E (antibody, human IgG1, kappa, L234A L235A) heavy: not shown light: DIVMTQSPLSLPVTPGEPASISCKSSQSLLYSNGYNYLDWYLQRPGQSPQLLIYLGSNRASGVPDRFSGSGSGTDFTLKISRVEAEDVGVFYCMQALQTPLTFGGGTKVEIKRTVAAPSVFIFPPSDEQLKSGTASVVCLLNNFYPREAKVQWKVDNALQSGNSQESVTEQDSKDSTYSLSSTLTLSKADYEKHKVYACEVTHQGLSSPVTKSFNRGEC
0.6	–	no binding (tested: about 67 nM)	–	no binding (tested: about 67 nM)	1	–	–	–	–	–	Antibody E22 (antibody, human IgG1, kappa, L234A L235A, V domains shown) VH: QVQLQESGPGLVKPSETLSLTCTVSGGSIRDYYWSWIRQPPGKGLEWIGFIYYNGRTFYQSSLKSRVTISLDTSKNQFSLKMTSVTAADTAVYYCARVRAYSGIGLDGTDVWGQGTTVTVSS VL: DIVMTQSPLSLPVTPGEPASISCRSSQSLLYSTGYTYLDWYLQRPGQSPQLLIYGGSSRASGVPDRFSGSGSGTDFTLKISRVEAEDVGVFYCGQALQTPLTFGQGTKVEIKR
–	–	no binding (tested: about 67 nM)	no binding (tested: about 67 nM)	–	–	1.6	0.2	0.4	0.6	0.7	Antibody A (antibody, human IgG1, kappa, L234A L235A) heavy: not shown light: DIQMTQSPSSLSASVGDRVTITCRASQDINNYLAWFQQKPGKAPKSLIYTASSLHSGVPSKFSGSGSGTDFTLTISSLQPEDFATYYCQQYVSYPYTFGQGTKLEIKRTVAAPSVFIFPPSDEQLKSGTASVVCLLNNFYPREAKVQWKVDNALQSGNSQESVTEQDSKDSTYSLSSTLTLSKADYEKHKVYACEVTHQGLSSPVTKSFNRGEC
–	0.6	–	–	–	–	0.2	0.5	–	–	–	Antibody C (antibody, human IgG1, kappa, L234A L235A, V domains shown) VH: EVQLVESGGGLVQPGGSLRLSCAASGFTFSSYDMHWVRQATGKGLEWVSVIGIAGDTYYPGSVKGRFTISRENAKNSLYLQMNSLRVGDTAVYYCARGGSWDDAFDIWGQGTMVTVSS VL: DIQMTQSPSSLSASIGDKVTITCRASQDINNYLAWFQQKPGKAPKSLIYTASSLQSGVPSKFSGSGSGTDFTLTISSLQPEDFATYYCQQYVSYPYTFGQGTKLEIKR
–	–	no binding (tested: about 67 nM)	–	–	–	1.6	0.2	0.5	0.7	0.6	Antibody A10 (antibody, human IgG1, kappa, L234A L235A) heavy: not shown light: DIQMTQSPSSLSASVGDRVTITCRASQDINNYLAWFQQKPGKAPKSLIYTASSLHSGVPSKFSGSGSGTDFTLTISSLQPEDFATYYCQQYVSYPYTFGQGTKLEIKRTVAAPSVFIFPPSDEQLKSGTASVVCLLNNFYPREAKVQWKVDNALQSGNSQESVTEQDSKDSTYSLSSTLTLSKADYEKHKVYACEVTHQGLSSPVTKSFNRGEC
–	0.5	–	no binding (tested: about 67 nM)	–	–	0.2	0.4	0.3	0.3	–	Antibody D (antibody, human IgG1, kappa, L234A L235A, V domains shown) VH: EVQLVESGGGLVQPGGSLRLSCAASGFTFSSFDMHWVRQPTGKGLEWVSTIGIAGDTYFPGSVKGRFTISRENAKNSLYLQMNSLRAGDTAVYYCARGGNWDDALDIWGQGTMVTVSS VL: DIQMTQSPSSLSASVGDRVTITCRASQDINNYLAWFQQKPGKAPKSLIYTASSLQSGVPSKFSGSGSGTDFTLTISSLQPEDFATYYCQQYNTYPYTFGQGTKLEIKR
–	21.1	–	no binding (tested: about 67 nM)	–	–	–	–	4.8	5.3	–	Antibody B (antibody, human IgG1, kappa, L234A L235A, V domains shown) VH: QVQLVQSGAEVKKPGASVKVSCKASGYTFTGNYMHWVRQAPGQGLEWMGWINPNSGGTNYAQKFQGRVTMTRDTSISTAYMELSRLRSDDTAVYYCVSGSGWYENYYYYGMDVWGQGTTVTVSS VL: DIQMTQSPSSVSASVGDRVTITCRASQGISSWLAWYQQKPGKAPKLLIYAESSLQSGVPSRFSGSGSGTDFTLTISSLQPEDFATYYCQQANSFPLTFGGGTKVEIKR
0.2	0.5	–	–	–	0.4	0.2	0.2	0.3	0.3	0.2	Anti-SIRPα antibody KWAR23 (antibody, V domains shown) VH: EVQLQQSGAELVKPGASVKLSCTASGFNIKDYYIHWVQQRTEQGLEWIGRIDPEDGETKYAPKFQDKATITADTSSNTAYLHLSSLTSEDTAVYYCARWGAYWGQGTLVTVSS VL: QIVLTQSPAIMSASPGEKVTLTCSASSSVSSSYLYWYQQKPGSSPKLWIYSTSNLASGVPARFSGSGSGTSYSLTISSMEAEDAASYFCHQWSSYPRTFGAGTKLELK
